{
  "source": "patent US9708413B2",
  "about": "“Glycosylated linker, compound containing glycosylated linker moiety and physiologically active substance moiety or salt thereof, and methods for producing said compound or salt thereof” (Glytech, Inc., priority 2012, dated 2017)",
  "key": {"physchem": {"test": "physchem", "procedure": "To each microtube, 30 μL of a 0.1% aqueous TFA solution was added. These microtubes were shaken at 25° C. for 15 minutes and then centrifuged at 16100×g at 25° C. for 10 minutes. Subsequently, the absorbance of the supernatant at 280 nm was measured in each of these microtubes.\nThen, three of these tubes were used in amino acid composition analysis to determine sample contents. […] This absorbance at 280 nm was divided by the concentration determined in the amino acid composition analysis to determine the molar absorption coefficient.\nThe molar absorption coefficient εM of the HER28-16 peptide (SEQ ID NO: 15) at 280 nm was calculated according to the following expression (C. N. Pace et al., Prot. Sci., 1995, 4, pp. 2411-2423): εM=Trp×5500+Tyr×1490+Cystine×125[A280/mol/cm]\nwherein Trp represents the number of tryptophan residues, Tyr represents the number of tyrosine residues, and Cystine represents the number of disulfide bonds."}, "[1]": {"test": "Autocatalytic cleavage of the glycosylated linker moiety in aqueous solution, traced by HPLC (elimination half-life)", "procedure": "To each sampled solution, a 0.5% aqueous TFA solution (28 μL) was added, and this solution was then frozen. The obtained solution was dissolved immediately before HPLC analysis, and a 50 μL aliquot thereof was injected and analyzed by HPLC [column: SHISEIDO CAPCELL PAK C18 UG-120 (5 μm), φ4.6×250 mm, flow rate: 0.7 mL/min, eluent A: 0.1% TFA in water, eluent B: 0.09% TFA/10% water/90% acetonitrile, gradient A:B=77:23→50:50 (20 min) linear concentration gradient elution]. The compound was detected using a diode array detector with a detection wavelength set to 220 nm."}, "[2]": {"details": "PBS solution, pH 7.4, Elimination half-life, PBS (pH 7.4), 25° C."}, "[3]": {"details": "PBS solution, pH 7.4, Elimination half-life, PBS (pH 7.4), 37° C."}, "[4]": {"details": "acetate buffer solution, pH 4, Elimination half-life, Acetate buffer solution (pH 4.0), 25° C."}, "[5]": {"details": "acetate buffer solution, pH 4, Elimination half-life, Acetate buffer solution (pH 4.0), 37° C."}},
  "note": "Values joined by “and” are separate entries in the source; they are usually repeats but may differ in a detail not shown here. Equal values may be shown once. Read-outs that look alike come from different tables or passages of the source.",
  "data": [
    {"smiles": "CC(C)C[C@H](NC(=O)[C@H](CC(C)C)NC(=O)[C@H](C)NC(=O)[C@H](CC(C)C)NC(=O)[C@H](CC(C)C)NC(=O)[C@H](CC(C)C)NC(=O)CNC(=O)[C@H](Cc1c[nH]c2ccccc12)NC(=O)[C@@H](N)CCCNC(=N)N)C(=O)O", "note": "[HER28-16, reference compound]", "values": [
      {"measurement": "solubility thermodynamic at 15 min", "setting": "physchem", "value": "210 µg/mL and 200 µM"}
    ]},
    {"smiles": "CC(=O)N[C@@H]1[C@@H](O)[C@H](O[C@@H]2O[C@H](CO)[C@@H](O[C@@H]3O[C@H](CO[C@H]4O[C@H](CO)[C@@H](O)[C@H](O)[C@@H]4O[C@@H]4O[C@H](CO)[C@@H](O[C@@H]5O[C@H](CO)[C@H](O)[C@H](O)[C@H]5O)[C@H](O)[C@H]4NC(C)=O)[C@@H](O)[C@H](O[C@H]4O[C@H](CO)[C@@H](O)[C@H](O)[C@@H]4O[C@@H]4O[C@H](CO)[C@@H](O[C@@H]5O[C@H](CO)[C@H](O)[C@H](O)[C@H]5O)[C@H](O)[C@H]4NC(C)=O)[C@@H]3O)[C@H](O)[C@H]2NC(C)=O)[C@@H](CO)O[C@H]1NC(=O)CC(N)C(=O)N1CCN(CCNC(=O)c2ccccc2C(=O)N[C@@H](Cc2ccc(O)cc2)C(=O)N[C@@H](Cc2ccccc2)C(=O)N2CCC[C@H]2C(=O)NCC(=O)N[C@@H](CCC(N)=O)C(=O)N[C@@H](Cc2ccccc2)C(=O)N[C@@H](C)C(=O)N[C@@H](Cc2ccccc2)C(=O)N[C@@H](CO)C(=O)O)CC1", "note": "(stereo partly shown) [compound 1, glycosylated (Asn (asialo)-type) linker-chemerin 9 conjugate]", "values": [
      {"measurement": "half-life", "setting": "[1]; PBS solution, pH 7.4, Elimination half-life, PBS (pH 7.4), 4° C.", "value": 43.1, "unit": "h"},
      {"measurement": "half-life", "setting": "[1]; [2]", "value": 4.3, "unit": "h"},
      {"measurement": "half-life", "setting": "[1]; [3]", "value": 1.2, "unit": "h"},
      {"measurement": "half-life", "setting": "[1]; acetate buffer solution, pH 4, Elimination half-life, Acetate buffer solution (pH 4.0), 4° C.", "value": 250, "unit": "h"},
      {"measurement": "half-life", "setting": "[1]; [4]", "value": 16, "unit": "h"},
      {"measurement": "half-life", "setting": "[1]; [5]", "value": 4.4, "unit": "h"},
      {"measurement": "half-life", "setting": "[1]; water, Elimination half-life (Reference), in water, 4° C.", "value": 221, "unit": "h"}
    ]},
    {"smiles": "CC(=O)N[C@@H]1[C@@H](O)[C@H](O)[C@@H](CO)O[C@H]1NC(=O)CSC[C@H](N)C(=O)N1CCN(CCNC(=O)c2ccccc2C(=O)N[C@@H](Cc2ccc(O)cc2)C(=O)N[C@@H](Cc2ccccc2)C(=O)N2CCC[C@H]2C(=O)NCC(=O)N[C@@H](CCC(N)=O)C(=O)N[C@@H](Cc2ccccc2)C(=O)N[C@@H](C)C(=O)N[C@@H](Cc2ccccc2)C(=O)N[C@@H](CO)C(=O)O)CC1", "note": "[compound 4, glycosylated (Cys (GlcNAc)-type) linker-chemerin 9 conjugate]", "values": [
      {"measurement": "half-life", "setting": "[1]; [3]", "value": 1.4, "unit": "h"},
      {"measurement": "half-life", "setting": "[1]; [5]", "value": 4.3, "unit": "h"}
    ]},
    {"smiles": "CC(=O)N[C@@H]1[C@@H](O)[C@H](O[C@@H]2O[C@H](CO)[C@@H](O[C@@H]3O[C@H](CO[C@H]4O[C@H](CO)[C@@H](O)[C@H](O)[C@@H]4O[C@@H]4O[C@H](CO)[C@@H](O[C@@H]5O[C@H](CO)[C@H](O)[C@H](O)[C@H]5O)[C@H](O)[C@H]4NC(C)=O)[C@@H](O)[C@H](O[C@H]4O[C@H](CO)[C@@H](O)[C@H](O)[C@@H]4O[C@@H]4O[C@H](CO)[C@@H](O[C@@H]5O[C@H](CO)[C@H](O)[C@H](O)[C@H]5O)[C@H](O)[C@H]4NC(C)=O)[C@@H]3O)[C@H](O)[C@H]2NC(C)=O)[C@@H](CO)O[C@H]1NC(=O)CSCC(N)C(=O)N1CCN(CCNC(=O)c2ccccc2C(=O)N[C@@H](Cc2ccc(O)cc2)C(=O)N[C@@H](Cc2ccccc2)C(=O)N2CCC[C@H]2C(=O)NCC(=O)N[C@@H](CCC(N)=O)C(=O)N[C@@H](Cc2ccccc2)C(=O)N[C@@H](C)C(=O)N[C@@H](Cc2ccccc2)C(=O)N[C@@H](CO)C(=O)O)CC1", "note": "(stereo partly shown) [compound 5, glycosylated (Cys (asialo)-type) linker-chemerin 9 conjugate]", "values": [
      {"measurement": "half-life", "setting": "[1]; [3]", "value": 1.3, "unit": "h"},
      {"measurement": "half-life", "setting": "[1]; [5]", "value": 4.5, "unit": "h"}
    ]},
    {"smiles": "CC(=O)N[C@@H]1[C@@H](O)[C@H](O[C@@H]2O[C@H](CO)[C@@H](O[C@@H]3O[C@H](CO[C@H]4O[C@H](CO)[C@@H](O)[C@H](O)[C@@H]4O[C@@H]4O[C@H](CO)[C@@H](O[C@@H]5O[C@H](CO)[C@H](O)[C@H](O)[C@H]5O)[C@H](O)[C@H]4NC(C)=O)[C@@H](O)[C@H](O[C@H]4O[C@H](CO)[C@@H](O)[C@H](O)[C@@H]4O[C@@H]4O[C@H](CO)[C@@H](O[C@@H]5O[C@H](CO)[C@H](O)[C@H](O)[C@H]5O)[C@H](O)[C@H]4NC(C)=O)[C@@H]3O)[C@H](O)[C@H]2NC(C)=O)[C@@H](CO)O[C@H]1NC(=O)CC(NC(=O)OCC1c2ccccc2-c2ccccc21)C(=O)N1CCN(CCNC(=O)c2ccccc2C(=O)N[C@@H](Cc2ccc(O)cc2)C(=O)N[C@@H](Cc2ccccc2)C(=O)N2CCC[C@H]2C(=O)NCC(=O)N[C@@H](CCC(N)=O)C(=O)N[C@@H](Cc2ccccc2)C(=O)N[C@@H](C)C(=O)N[C@@H](Cc2ccccc2)C(=O)N[C@@H](CO)C(=O)O)CC1", "note": "(stereo partly shown) [compound 7, glycosylated (Fmoc-Asn (asialo)-type) linker-chemerin 9 conjugate]", "values": [
      {"measurement": "half-life", "setting": "[1]; [3]", "value": 2.6, "unit": "h"},
      {"measurement": "half-life", "setting": "[1]; [5]", "value": 12.2, "unit": "h"}
    ]},
    {"smiles": "CC(=O)N[C@@H]1[C@@H](O)[C@H](O[C@@H]2O[C@H](CO)[C@@H](O[C@@H]3O[C@H](CO[C@H]4O[C@H](CO)[C@@H](O)[C@H](O)[C@@H]4O[C@@H]4O[C@H](CO)[C@@H](O[C@@H]5O[C@H](CO)[C@H](O)[C@H](O)[C@H]5O)[C@H](O)[C@H]4NC(C)=O)[C@@H](O)[C@H](O[C@H]4O[C@H](CO)[C@@H](O)[C@H](O)[C@@H]4O[C@@H]4O[C@H](CO)[C@@H](O[C@@H]5O[C@H](CO)[C@H](O)[C@H](O)[C@H]5O)[C@H](O)[C@H]4NC(C)=O)[C@@H]3O)[C@H](O)[C@H]2NC(C)=O)[C@@H](CO)O[C@H]1NC(=O)CC(N)C(=O)N1CCN(CCNC(=O)c2c(Cl)c(Cl)c(Cl)c(Cl)c2C(=O)N[C@@H](Cc2ccc(O)cc2)C(=O)N[C@@H](Cc2ccccc2)C(=O)N2CCC[C@H]2C(=O)NCC(=O)N[C@@H](CCC(N)=O)C(=O)N[C@@H](Cc2ccccc2)C(=O)N[C@@H](C)C(=O)N[C@@H](Cc2ccccc2)C(=O)N[C@@H](CO)C(=O)O)CC1", "note": "(stereo partly shown) [compound 10, glycosylated (Asn (asialo)-tetrachlorophthaloyl-type) linker-chemerin 9 conjugate]", "values": [
      {"measurement": "half-life", "setting": "[1]; [2]", "value": 1.1, "unit": "h"},
      {"measurement": "half-life", "setting": "[1]; [3]", "value": 0.255, "unit": "h"},
      {"measurement": "half-life", "setting": "[1]; [4]", "value": 4.5, "unit": "h"},
      {"measurement": "half-life", "setting": "[1]; [5]", "value": 1.3, "unit": "h"}
    ]},
    {"smiles": "CC(=O)N[C@@H]1[C@@H](O)[C@H](O[C@@H]2O[C@H](CO)[C@@H](O[C@@H]3O[C@H](CO[C@H]4O[C@H](CO)[C@@H](O)[C@H](O)[C@@H]4O[C@@H]4O[C@H](CO)[C@@H](O[C@@H]5O[C@H](CO)[C@H](O)[C@H](O)[C@H]5O)[C@H](O)[C@H]4NC(C)=O)[C@@H](O)[C@H](O[C@H]4O[C@H](CO)[C@@H](O)[C@H](O)[C@@H]4O[C@@H]4O[C@H](CO)[C@@H](O[C@@H]5O[C@H](CO)[C@H](O)[C@H](O)[C@H]5O)[C@H](O)[C@H]4NC(C)=O)[C@@H]3O)[C@H](O)[C@H]2NC(C)=O)[C@@H](CO)O[C@H]1NC(=O)CC(N)C(=O)N1CCN(CCNC(=O)c2ccccc2C(=O)N[C@@H](CCCNC(=N)N)C(=O)N[C@@H](Cc2c[nH]c3ccccc23)C(=O)NCC(=O)N[C@@H](CC(C)C)C(=O)N[C@@H](CC(C)C)C(=O)N[C@@H](CC(C)C)C(=O)N[C@@H](C)C(=O)N[C@@H](CC(C)C)C(=O)N[C@@H](CC(C)C)C(=O)O)CC1", "note": "(stereo partly shown) [compound 11, glycosylated (Asn (asialo)-type) linker-HER28-16 conjugate]", "values": [
      {"measurement": "half-life", "setting": "[1]; [2]", "value": 8.3, "unit": "h"},
      {"measurement": "half-life", "setting": "[1]; [3]", "value": 2.6, "unit": "h"},
      {"measurement": "half-life", "setting": "[1]; [4]", "value": 21.4, "unit": "h"},
      {"measurement": "half-life", "setting": "[1]; [5]", "value": 6.2, "unit": "h"},
      {"measurement": "solubility at 15 minutes", "setting": "physchem", "value": "> 38", "unit": "mM"},
      {"measurement": "Solubility", "setting": "physchem; 0.1% aqueous TFA solution, 25° C., listed as Glycosylated linker-HER28-16 conjugate (compound 11)", "value": ">116", "unit": "mg/mL"},
      {"measurement": "solubility at 15 minutes", "setting": "physchem; Solubility (molar concentration), 0.1% aqueous TFA solution, 25° C.", "value": "≥ 38", "unit": "mM"}
    ]}
  ]
}
